This is an account of results in publication PMC7515635.

The assay addresses HIS6-GABARAP (human) (UniProt O95166). The experiment in a line: native MS; proteins exchanged into ammonium acetate, nanoelectrospray, Synapt G2Si; C53 1-5 µM or IDR 2.5 µM with 5-20 µM ATG8A or GABARAP.

Several values for one entry are separate records, joined by “and”; a condition that tells them apart may be missing. Equal entries are not always repeated.

Sequence of HIS6-GABARAP (human) (O95166 whole entry): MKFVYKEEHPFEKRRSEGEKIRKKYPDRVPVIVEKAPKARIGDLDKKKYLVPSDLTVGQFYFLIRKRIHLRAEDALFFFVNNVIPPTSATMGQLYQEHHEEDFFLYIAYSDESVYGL
Sequence of HIS6-HsC53 (Q96JB5 whole entry): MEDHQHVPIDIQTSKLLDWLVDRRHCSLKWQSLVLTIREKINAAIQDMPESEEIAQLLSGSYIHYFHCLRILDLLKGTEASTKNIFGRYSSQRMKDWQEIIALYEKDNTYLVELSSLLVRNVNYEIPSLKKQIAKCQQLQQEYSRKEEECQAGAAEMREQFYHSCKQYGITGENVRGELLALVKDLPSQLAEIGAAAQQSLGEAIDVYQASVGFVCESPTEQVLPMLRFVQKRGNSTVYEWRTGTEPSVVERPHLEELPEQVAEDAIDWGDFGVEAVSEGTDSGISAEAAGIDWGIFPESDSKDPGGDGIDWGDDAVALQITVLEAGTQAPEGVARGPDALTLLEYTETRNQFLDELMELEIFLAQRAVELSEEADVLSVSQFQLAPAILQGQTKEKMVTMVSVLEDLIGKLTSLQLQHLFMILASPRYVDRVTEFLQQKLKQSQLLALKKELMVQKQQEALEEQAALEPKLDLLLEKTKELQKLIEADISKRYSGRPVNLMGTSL

For “HIS6-HsC53 (from UniProt Q96JB5 1-506) (natural protein)”, the stoichiometry N (GABARAP per HsC53) was 1 and 2.
